Measurements taken from publication PMC12334862.

Assays:
[1] = biological target: His6-tagged rat gephyrin P1, wild type, trimers (GephT) (rat); assay: SEC; single proteins: preparative Superdex 200 16/60 after Ni-NTA and analytical Superose 6 increase; molecular weights by comparison to standard proteins; oligomeric state of the protein with itself
[2] = biological target: His6-tagged rat gephyrin P1, wild type, high oligomers (GephHO) (rat); assay: as above
[3] = biological target: His6-tagged dimerization-deficient rat gephyrin variant (G483D, S505F), trimers (ddGephT) (rat); assay: as above
[4] = biological target: His6-tagged rat gephyrin P1, wild type, high oligomers (GephHO) (rat); assay: SEC; as a1 with 1.5 nmol of the respective PIP (10 mol% in POPC) or POPC alone in DDM micelles added; SEC buffer with 0.01% DDM; height of the > 5 MDa void peak P1 at 280 nm
[5] = biological target: gephyrin from pig brain (pig (endogenous in pig brain tissue)); assay: native gel or EMSA; blue native PAGE (4%-16%) of the cytosol fraction of pig brain, western blot for gephyrin
[6] = biological target: collybistin CB2SH3+ (Rattus norvegicus) (UniProt Q9QX73); assay: FRET; conditions: cited from earlier work
[7] = biological target: His6-tagged rat gephyrin E-domain, wild type (WT-GephE) (rat); assay: mass photometry; Refeyn TwoMP; 5 nM final in 25 mM Tris/HCl pH 7.5, 150 mM NaCl, 5 mM β-mercaptoethanol, 1% glycerol; 60 s

gephyrin E-domain, sequence (Q03555 326-768): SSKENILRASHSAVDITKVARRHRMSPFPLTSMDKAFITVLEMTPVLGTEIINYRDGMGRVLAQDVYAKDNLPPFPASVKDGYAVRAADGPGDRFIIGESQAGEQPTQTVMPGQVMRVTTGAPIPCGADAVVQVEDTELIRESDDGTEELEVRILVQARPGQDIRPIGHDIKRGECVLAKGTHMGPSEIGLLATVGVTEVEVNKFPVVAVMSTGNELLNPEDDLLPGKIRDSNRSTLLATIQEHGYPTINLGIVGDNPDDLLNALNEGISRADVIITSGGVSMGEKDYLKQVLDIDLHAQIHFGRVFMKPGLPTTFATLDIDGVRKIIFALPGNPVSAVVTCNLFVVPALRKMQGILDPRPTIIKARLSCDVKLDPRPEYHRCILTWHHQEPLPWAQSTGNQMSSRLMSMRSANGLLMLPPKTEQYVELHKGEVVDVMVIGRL
collybistin CB2SH3+ (Rattus norvegicus), sequence (Q9QX73 whole entry): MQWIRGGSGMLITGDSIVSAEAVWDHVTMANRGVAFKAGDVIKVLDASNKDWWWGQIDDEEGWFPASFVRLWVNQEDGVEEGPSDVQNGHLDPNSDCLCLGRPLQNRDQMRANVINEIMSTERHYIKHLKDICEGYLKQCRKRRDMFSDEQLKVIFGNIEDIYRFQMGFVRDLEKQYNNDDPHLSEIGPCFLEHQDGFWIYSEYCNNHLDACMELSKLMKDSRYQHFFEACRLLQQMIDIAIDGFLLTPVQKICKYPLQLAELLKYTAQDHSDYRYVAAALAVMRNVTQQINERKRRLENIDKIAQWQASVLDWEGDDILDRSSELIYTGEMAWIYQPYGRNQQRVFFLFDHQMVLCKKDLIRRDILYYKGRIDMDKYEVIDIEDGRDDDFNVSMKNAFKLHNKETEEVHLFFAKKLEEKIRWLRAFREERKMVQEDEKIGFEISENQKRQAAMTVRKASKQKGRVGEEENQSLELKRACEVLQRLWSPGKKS

His6-tagged rat gephyrin P1, wild type, trimers (GephT) (natural protein)
stoichiometry N [1]: 3

His6-tagged rat gephyrin P1, wild type, high oligomers (GephHO) (natural protein)
stoichiometry N [2]: 12

His6-tagged dimerization-deficient rat gephyrin variant (G483D, S505F), trimers (ddGephT) (natural protein)
stoichiometry N [3]: 3

His6-tagged rat collybistin isoform 2 lacking the SH3 domain (CB2_(SH3-)) (natural protein)
P1 (> 5 MDa complex peak) absorption at 280 nm with PI(3,4)P2 [4]: 344 mAU
P1 (> 5 MDa complex peak) absorption at 280 nm with PI(3,4,5)P3 [4]: 378 mAU
P1 (> 5 MDa complex peak) absorption at 280 nm with PI(4,5)P2 [4]: 255 mAU
P1 (> 5 MDa complex peak) absorption at 280 nm with POPC [4]: 148 mAU
increase of the CB2SH3- band share within P1 with PI(3,4,5)P3 against the POPC control [4]: 22%
increase of the GephHO band share within P1 with PI(3,4,5)P3 against the POPC control [4]: 21%

gephyrin from pig brain (natural protein)
stoichiometry N [5]: 3

gephyrin E-domain (from UniProt Q03555)
Kd [6]: 6.3 µM

His6-tagged rat gephyrin E-domain, wild type (WT-GephE) (domain or fragment)
stoichiometry N [7]: 2
